Target: T1, Bcl2 (UniProt P10415 1-207, limits assumed, biotinylated)
T1 construct: Loaded on streptavidin biosensors; also called Biotinylated Bcl2; target
Experiment: bio-layer interferometry (Octet), Bcl2 on tips, switch with nine residue toehold with and without cognate key
Excerpt: Specificity was designed for using different hydrogen bond networks at the cage-key interface. The latch helix was deleted from the original extended LOCKRₐ model and backbones for a new sixth helix were generated by parametrically sampling the radius, helical phase, and z-offset of the new latch/key helix. The resulting structures were scanned for new hydrogen bond networks spanning the interface between the new sixth helix and cage with all buried polar atoms participating in hydrogen bonds; the remaining interface around the networks was subjected to full sequence and sidechain rotamer optimization using Rosetta™ design. Five designs were selected based on packing quality, sequence dissimilarity, and lack of buried polar atoms not participating in hydrogen bonds. Truncations and toehold variants were assayed for cognate and off target key binding using the GFP pulldown assay from FIG. 1c. […] All bound keyₐ to some extent yet is unknown. The Bim sequence was threaded onto the latches of these three designs as it was for the original design, BimLOCKRₐ (FIG. 2). BimLOCKRb and BimLOCKR, show 22-fold and 8-fold activation, respectively, from their cognate keys given a nine residue toehold on the latch (FIG. 3a,b). BimLOCKRₐ, BimLOCKRb and BimLOCKRc are also orthogonal; each is activated only by its cognate key at concentrations up to 5 uM (FIG. 3c). […]

T1 sequence (P10415 1-207 limits assumed): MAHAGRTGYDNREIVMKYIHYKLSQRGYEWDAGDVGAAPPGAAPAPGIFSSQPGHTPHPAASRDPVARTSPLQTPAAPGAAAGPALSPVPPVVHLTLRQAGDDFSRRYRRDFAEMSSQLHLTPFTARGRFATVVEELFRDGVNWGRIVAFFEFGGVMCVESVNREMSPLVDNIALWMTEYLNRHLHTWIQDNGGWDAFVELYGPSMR

B1: BimLOCKRb (nine residue toehold) (designed binder)
chain: MGSSHHHHHHSSGLVPRGSHMSHAAVIKLSDLNIRLLDKLLQAVIKLTELNAELNRKLIEALQRLFDLNVALVHLAAELTDPKRIADEIKKVKDKSKEIVERAEEEIARAAAESKKILDEAEEEIARAAAESKKILDEGSGSGSDAVAELQALNLKLAELLLEAVAELQALNLKLAELLLEAIAKLQELNIKLVELLTKLTDPATIREAIRKVKEDSERIVAEAERLIAAAKAESERIIREAERLIAAAKAESERIIREGSGSNDPQVAQNQETFIELARDALRLVAENQEAFIEVARLTLRAAALAQEVAIKAVEAASEGGSGSGNEIWIAQELRRIGDEFNAYYAEHKEIHDKLRKKNKKAREDLKKKADE
For B1, the “fold activation of binding by the cognate key” value was 22 fold.

B2: BimLOCKRc (nine residue toehold) (designed binder)
chain: MGSSHHHHHHSSGLVPRGSHMSLEAVLKLAELNLKLSDKLAEAVQKLAALLNKLLEKLSEALQRLFELNVALVTLAIELTDPKRIADEIKKVKDKSKEIVERAEEEIARAAAESKKILDEAEEEIARAAAESKKILDEGSGSGSDAVAELQALNLKLAELLLEAVAELQALNLKLAELLLEAIAKLQELNIKLVELLTKLTDPATIREAIRKVKEDSERIVAEAERLIAAAKAESERIIREAERLIAAAKAESERIIREGSGSNDPLVARLQELLIEHARELLRLVATSQEIFIELARAFLANAAQLQEAAIKAVEAASENGSGEIWIAQELRRIGDEFNAYYAQNQKLLKDHKRAQEKLNRELEELKKKHKK
notes: also called printed once as 'BimLOCKR,'
In the case of B2, the “fold activation of binding by the cognate key” value is reported as 8 fold.

Source: patent publication US20200239524A1 (University of Washington, published 2020)
